Experimental data as given in patent publication US20220119534A1 (DRAGONFLY THERAPEUTICS, published 2022).
Residue numbers refer to the chain shown, from its start. Numbers in names are those of the source. Each block holds one binder with its values, some of them ahead of it.

Legend:
mFc-hNKG2D [1] = target: T1, mFc-hNKG2D (human, UniProt P26718 73-216); experiment: SPR Biacore 8K 37 C; mFc-hNKG2D captured on anti-mFc chip, TriNKET as analyte; steady state fit; pH 8.0 control
T1 construct: extracellular domain; Made in house (Dragonfly Tx); the order of tag and ECD follows the name mFc-hNKG2D; also called mFc-tagged human NKG2D; not shown: mouse Fc tag
T1 sequence (looked up): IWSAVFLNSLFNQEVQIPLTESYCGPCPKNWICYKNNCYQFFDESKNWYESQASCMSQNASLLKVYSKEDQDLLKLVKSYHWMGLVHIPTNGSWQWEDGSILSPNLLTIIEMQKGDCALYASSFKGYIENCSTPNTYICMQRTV

[2] = target: T2, Human CD16a V158 (FcγRIIIa V158) (human, UniProt P08637 17-208, biotinylated (site not stated)); experiment: SPR; biotinylated CD16a V158 captured on SA chip, TriNKET as analyte; 1:1 kinetic fit; control sample, n=3
T2 construct: V158 is the allele name in mature numbering; also called hCD16aV; hCD16a V158

Human CLEC12A-His = target: T3, Human CLEC12A-His (human, UniProt Q5QGZ9 65-265); experiment: SPR Biacore 8K 37 C; TriNKET captured on anti-hFc chip, hCLEC12A-His as analyte; 1:1 fit; after 4 wks 2-8 C in CST pH 7.0, n=2
T3 construct: Recombinant soluble protein made in house (Dragonfly Tx); The hCLEC12A spot of the HuProt array is written under this molecule as well; also called hCLEC12A-His; hCLEC12A; not shown: His tag
T3 sequence: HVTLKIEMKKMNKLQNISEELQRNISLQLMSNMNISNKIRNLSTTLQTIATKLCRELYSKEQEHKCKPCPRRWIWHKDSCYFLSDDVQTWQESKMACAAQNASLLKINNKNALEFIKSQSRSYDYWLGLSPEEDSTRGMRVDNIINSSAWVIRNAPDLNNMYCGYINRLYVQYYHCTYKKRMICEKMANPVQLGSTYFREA

mFc-hNKG2D [3] = target: T1, mFc-hNKG2D; experiment: SPR Biacore 8K 37 C; mFc-hNKG2D captured on anti-mFc chip, TriNKET as analyte; 1:1 kinetic fit; control sample, n=3
[4] = target: T4, Human CLEC12A expressed on cells (Ba/F3-hCLEC12A, PL21, HL60) (human, UniProt Q5QGZ9 1-265); experiment: cell-based or functional assay
T4 sequence: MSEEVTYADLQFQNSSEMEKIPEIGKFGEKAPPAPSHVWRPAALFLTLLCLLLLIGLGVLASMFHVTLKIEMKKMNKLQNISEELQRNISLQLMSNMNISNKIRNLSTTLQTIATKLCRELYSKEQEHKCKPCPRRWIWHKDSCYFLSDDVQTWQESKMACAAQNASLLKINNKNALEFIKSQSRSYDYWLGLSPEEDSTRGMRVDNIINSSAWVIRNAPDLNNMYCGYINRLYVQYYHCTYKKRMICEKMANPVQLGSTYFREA

[5] = target: T4, Human CLEC12A expressed on cells …; experiment: cell-based or functional assay; remark: listed apart in the source
[6] = target: T5, mFc-hNKG2D (recombinant mFc-tagged human NKG2D dimer) (human, UniProt P26718 73-216); experiment: SPR; after pH 5.0, 40C, 2 wks (n = 2)
T5 construct: extracellular domain; Made in house; not shown: mouse Fc tag
T5 sequence (looked up): T1 sequence (looked up)

[7] = target: T6, Human CLEC12A-His (recombinant, K244 WT) (human, UniProt Q5QGZ9 65-265); experiment: SPR, two-state fit (kd1); control sample
T6 construct: Made in house (Dragonfly Tx); also called hCLEC12A; hCLEC12A-His; not shown: His tag
T6 sequence: T3 sequence

[8] = target: T4, Human CLEC12A expressed on cells …; experiment: cell-based or functional assay; remark: listed apart in the source
[9] = target: T7, Human CD16a V158 (FcγRIIIa V158) (human, UniProt P08637 17-208, biotinylated); experiment: SPR 25C, average
T7 construct: Bought recombinant receptor; also called hCD16aV; hFcγRIIIa V158

[10] = target: T6, Human CLEC12A-His (recombinant, K244 WT); experiment: SPR, two-state fit; control sample
[11] = target: T7, Human CD16a V158 (FcγRIIIa V158); experiment: SPR; after pH 8, 40C, 2 wks
[12] = target: T6, Human CLEC12A-His (recombinant, K244 WT); experiment: SPR, two-state fit; after pH 5.0, 40C, 2 wks
De-sialylated CLEC12A = target: T8, De-sialylated CLEC12A (human, UniProt Q5QGZ9 65-265, treated with neuraminidase (terminal sialic acids removed)); experiment: SPR, de-sialylated CLEC12A; average of 3 replicates
T8 construct: Recombinant human CLEC12A after neuraminidase; also called de-sialylated hCLEC12A
T8 sequence: T3 sequence

[13] = target: T9, human CLEC12A expressed on cells (human, UniProt Q5QGZ9 1-265); experiment: flow cytometry, hCLEC12A+ Ba/F3
T9 construct: Transduced isogenic cells or endogenous expression on AML cells; also called RMA-hCLEC12A; Ba/F3-hCLEC12A
T9 sequence: T4 sequence

recombinant human FcRn = target: T10, recombinant human FcRn (human, UniProt P55899 24-297; P61769 21-119); experiment: SPR 25C, pH 6.0, steady state; pH 6.0; fourth replicate
T10 construct: also called hFcRn

T2 sequence (P08637 17-208 F176V limits assumed): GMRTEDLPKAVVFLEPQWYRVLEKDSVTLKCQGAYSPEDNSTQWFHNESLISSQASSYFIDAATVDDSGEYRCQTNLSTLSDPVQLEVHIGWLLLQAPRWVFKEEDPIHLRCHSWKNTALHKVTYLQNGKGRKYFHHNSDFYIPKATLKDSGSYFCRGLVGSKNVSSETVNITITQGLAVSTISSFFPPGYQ
T7 sequence (P08637 17-208 F176V limits assumed): as above

Kd (mFc-hNKG2D [1]): 695 nM
Kd [2]: 212 nM
koff [2]: 0.024 s⁻¹
kon [2]: 113000 M⁻¹ s⁻¹
Kd (Human CLEC12A-His): 0.91 nM
koff (Human CLEC12A-His): 0.000708 s⁻¹
kon (Human CLEC12A-His): 776000 M⁻¹ s⁻¹
Kd (mFc-hNKG2D [3]): 661 nM
koff (mFc-hNKG2D [3]): 0.139 s⁻¹
kon (mFc-hNKG2D [3]): 211000 M⁻¹ s⁻¹
B1: F3'-1602 TriNKET (bispecific antibody, human IgG1, kappa)
chain: QLQLQESGPGLVKPSETLSLTCTVSGFSLTNYGLHWIRQPPGKCLEWIGVIWSGGKTDYNPSLKSRVTISKDTSKNQFSLKLSSVQAADTAVYYCAKYDYDDSLDYWGQGTLVTVSSGGGGSGGGGSGGGGSGGGGSDIQMTQSPSSLSASVGDRVTITCHASQNINFWLSWYQQKPGKAPKLLIYEASNLHTGVPSRFSGSGSGTRFTLTISSLQPEDIATYYCQQSHSYPLTFGCGTKLEIKGSDKTHTCPPCPAPELLGGPSVFLFPPKPKDTLMISRTPEVTCVVVDVSHEDPEVKFNWYVDGVEVHNAKTKPREEQYNSTYRVVSVLTVLHQDWLNGKEYKCKVSNKALPAPIEKTISKAKGQPREPRVYTLPPCRDELTKNQVSLTCLVKGFYPSDIAVEWESNGQPENNYKTTPPVLVSDGSFTLYSKLTVDKSRWQQGNVFSCSVMHEALHNHYTQKSLSLSPG
heavy: EVQLVESGGGLVKPGGSLRLSCAASGFTFSSYSMNWVRQAPGKGLEWVSSISSSSSYIYYADSVKGRFTISRDNAKNSLYLQMNSLRAEDTAVYYCARGAPIGAAAGWFDPWGQGTLVTVSSASTKGPSVFPLAPSSKSTSGGTAALGCLVKDYFPEPVTVSWNSGALTSGVHTFPAVLQSSGLYSLSSVVTVPSSSLGTQTYICNVNHKPSNTKVDKKVEPKSCDKTHTCPPCPAPELLGGPSVFLFPPKPKDTLMISRTPEVTCVVVDVSHEDPEVKFNWYVDGVEVHNAKTKPREEQYNSTYRVVSVLTVLHQDWLNGKEYKCKVSNKALPAPIEKTISKAKGQPREPQVCTLPPSRDELTENQVSLTCLVKGFYPSDIAVEWESNGQPENNYKTTPPVLDSDGSFFLYSWLTVDKSRWQQGNVFSCSVMHEALHNHYTQKSLSLSPG
light: DIQMTQSPSSVSASVGDRVTITCRASQGISSWLAWYQQKPGKAPKLLIYAASSLQSGVPSRFSGSGSGTDFTLTISSLQPEDFATYYCQQGVSFPRTFGGGTKVEIKRTVAAPSVFIFPPSDEQLKSGTASVVCLLNNFYPREAKVQWKVDNALQSGNSQESVTEQDSKDSTYSLSSTLTLSKADYEKHKVYACEVTHQGLSSPVTKSFNRGEC
notes: Trispecific F3' format: CLEC12A scFv-Fc paired with NKG2D Fab-Fc; Stressed and control samples of the stability studies are the same molecule; also called AB0237

EC50, rested NK cell lysis of PL21 cells (mean of six donors) [4]: 0.25 nM
EC50, NK cell induction of IFNγ and CD107a in co-culture with HL60 cells (mean of three donors) [5]: 0.05 nM
Kd [6]: 703 nM
koff [6]: 0.131 s⁻¹
kon [6]: 187000 M⁻¹ s⁻¹
koff [7]: 0.042 s⁻¹
Kd [9]: 333 nM
koff [9]: 0.0277 s⁻¹
kon [9]: 83100 M⁻¹ s⁻¹
Kd [10]: 0.9 nM
Kd [11]: 350 nM
koff [11]: 0.0279 s⁻¹
kon [11]: 79400 M⁻¹ s⁻¹
Kd [12]: 1 nM
B2: AB0089 TriNKET (bispecific antibody, human IgG1, kappa)
chain: B1 chain with S53V, K56A, K71V, Y98G, D101G, S103T, R207D, I220F
heavy: B1 heavy
light: B1 light
notes: F3' format heterodimer of three chains; human IgG1 Fc with EW-RVT and Y349C/S354C mutations; also called AB0089 Lot AB0089-002; CLEC12A TriNKET AB0089
EC50, primary NK mediated cytotoxic killing of PL21 cells [8]: 0.35 nM

Kd (De-sialylated CLEC12A): 1.04 nM
koff (De-sialylated CLEC12A): 0.00104 s⁻¹
kon (De-sialylated CLEC12A): 1.01e+06 M⁻¹ s⁻¹
B3: AB0192 TriNKET (other)
chain: EVQLVESGGGVVQPGGSLRLSCAASGFTFNAFGMHWVRQAPGKCLEWVAFISSGSTSIYYANTVKGRFTISRDNSKNTLYLQMNSLRAEDTAVYYCARDGYPTGGAMDYWGQGTSVTVSSGGGGSGGGGSGGGGSGGGGSDIQMTQSPSSLSASVGDRVTITCKASQDIYNYLSWFQQKPGKAPKPLIYRANILVSGVPSRFSGSGSGQDYTFTISSLQPEDIATYYCLQFDAFPFTFGCGTKLEIKGSDKTHTCPPCPAPELLGGPSVFLFPPKPKDTLMISRTPEVTCVVVDVSHEDPEVKFNWYVDGVEVHNAKTKPREEQYNSTYRVVSVLTVLHQDWLNGKEYKCKVSNKALPAPIEKTISKAKGQPREPRVYTLPPCRDELTKNQVSLTCLVKGFYPSDIAVEWESNGQPENNYKTTPPVLVSDGSFTLYSKLTVDKSRWQQGNVFSCSVMHEALHNHYTQKSLSLSPG
heavy: B1 heavy
light: B1 light
notes: the condition stands under assay; also called AB0192 Lot AB0192-005

EC50 [13]: 3.2 nM
Kd (recombinant human FcRn): 1600 nM
B4: F3'-1602 TriNKET (other)
chain: B1 chain
heavy: B1 heavy
light: B1 light
notes: CLEC12A scFv-Fc, NKG2D A49MI Fab-Fc, human IgG1 Fc; also called AB0237
